Patent EP0696198B1

Key:
Factor Xa [1] = assay: reconstituted prothrombinase complex assay (250 pM FXa, 2.67 µM prothrombin), thrombin generation
Factor Xa [2] = assay: cell-based or functional assay
Factor Xa [3] = assay: modified prothrombinase complex assay (50 pM FXa, 1.35 µM prothrombin)

- Ki (Factor Xa [1]): 0.072 nM
- IC50, prothrombinase complex assay (thrombin generation) (Factor Xa [2]): 0.19 nM
- Ki (Factor Xa [3]): 0.12 nM
Substance: naturally occurring FXa inhibitor isolated from dilute leech saliva (DLS) of Hirudo medicinalis
